T1: IRTA1 expressed on transfected CHO cells (full-length transmembrane form with N-terminal epitope tag) (human, UniProt Q96PJ5 20-515)
T1 construct: also called CHO line expressing IRTA1
T1 sequence: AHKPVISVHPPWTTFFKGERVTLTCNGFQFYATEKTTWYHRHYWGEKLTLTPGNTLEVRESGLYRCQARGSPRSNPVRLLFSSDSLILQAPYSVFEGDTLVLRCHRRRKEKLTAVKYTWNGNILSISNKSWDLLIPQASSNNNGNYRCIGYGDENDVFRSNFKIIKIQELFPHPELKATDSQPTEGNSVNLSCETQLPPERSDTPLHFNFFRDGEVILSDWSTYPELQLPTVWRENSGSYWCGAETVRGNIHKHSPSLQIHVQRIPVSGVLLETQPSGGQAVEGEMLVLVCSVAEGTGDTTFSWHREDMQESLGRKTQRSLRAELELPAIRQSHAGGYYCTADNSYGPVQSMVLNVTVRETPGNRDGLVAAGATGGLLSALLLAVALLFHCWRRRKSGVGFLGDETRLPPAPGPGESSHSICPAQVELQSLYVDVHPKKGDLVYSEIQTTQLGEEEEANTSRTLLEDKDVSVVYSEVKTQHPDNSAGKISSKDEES

T2: IRTA2 expressed on transfected CHO cells (full-length transmembrane form with N-terminal epitope tag) (human, UniProt Q96RD9 16-977)
T2 construct: also called CHO line expressing IRTA2
T2 chain: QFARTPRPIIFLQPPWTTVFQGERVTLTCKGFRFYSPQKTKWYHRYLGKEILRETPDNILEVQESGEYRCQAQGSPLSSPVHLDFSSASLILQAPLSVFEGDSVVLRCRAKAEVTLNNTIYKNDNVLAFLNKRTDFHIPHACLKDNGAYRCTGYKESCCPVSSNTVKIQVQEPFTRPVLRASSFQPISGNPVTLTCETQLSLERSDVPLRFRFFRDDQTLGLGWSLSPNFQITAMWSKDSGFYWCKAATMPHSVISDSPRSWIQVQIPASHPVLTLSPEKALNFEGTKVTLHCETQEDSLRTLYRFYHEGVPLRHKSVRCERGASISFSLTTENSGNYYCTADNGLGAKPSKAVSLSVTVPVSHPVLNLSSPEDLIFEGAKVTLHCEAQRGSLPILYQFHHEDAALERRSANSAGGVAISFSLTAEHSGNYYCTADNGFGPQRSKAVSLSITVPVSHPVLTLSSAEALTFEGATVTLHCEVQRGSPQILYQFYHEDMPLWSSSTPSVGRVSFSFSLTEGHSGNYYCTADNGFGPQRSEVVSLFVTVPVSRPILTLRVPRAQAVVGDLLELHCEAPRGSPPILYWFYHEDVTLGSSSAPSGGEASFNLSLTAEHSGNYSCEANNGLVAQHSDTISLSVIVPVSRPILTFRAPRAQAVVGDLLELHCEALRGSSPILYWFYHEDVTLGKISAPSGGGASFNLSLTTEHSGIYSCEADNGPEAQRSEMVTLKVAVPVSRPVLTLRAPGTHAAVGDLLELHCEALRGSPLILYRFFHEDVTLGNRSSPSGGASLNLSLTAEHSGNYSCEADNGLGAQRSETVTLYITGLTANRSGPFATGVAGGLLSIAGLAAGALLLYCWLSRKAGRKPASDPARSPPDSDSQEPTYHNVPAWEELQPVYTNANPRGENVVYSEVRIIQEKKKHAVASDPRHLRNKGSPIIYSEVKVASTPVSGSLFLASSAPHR

T3: IRTA5 expressed on transfected CHO cells (full-length transmembrane form with N-terminal epitope tag) (human, UniProt Q96LA6 17-429)
T3 construct: Neither the signal peptide limits nor the tag is stated; also called CHO line transfected with IRTA5; human IRTA-5
T3 sequence: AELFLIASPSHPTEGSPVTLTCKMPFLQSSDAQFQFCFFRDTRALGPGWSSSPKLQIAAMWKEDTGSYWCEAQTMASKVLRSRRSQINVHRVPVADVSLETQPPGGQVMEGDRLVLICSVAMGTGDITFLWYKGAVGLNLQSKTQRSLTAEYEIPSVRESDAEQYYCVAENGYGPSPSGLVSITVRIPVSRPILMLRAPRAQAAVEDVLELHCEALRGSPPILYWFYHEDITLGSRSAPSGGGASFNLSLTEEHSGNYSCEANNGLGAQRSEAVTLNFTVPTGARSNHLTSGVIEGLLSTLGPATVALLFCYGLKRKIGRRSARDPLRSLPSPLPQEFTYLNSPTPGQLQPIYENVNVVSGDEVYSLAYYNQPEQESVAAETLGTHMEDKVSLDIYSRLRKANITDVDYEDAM

B1: human monoclonal antibody 2G5 (antibody, V domains shown)
VH: QVQLVESGGGVVQPGRSLRLSCAASGFTFSDYGMHWVRQAPGKGLEWVAVIWYDGNNKYYADSVKGRFTISRDNSKNTLYLQMNSLRAEDTAVYYCARDWGRAFDIWGQGTMVTVSS
VL: EIVLTQSPATLSLSPGERATLSCRASQSVSSYLAWYQQKPGQAPRLLIYDASNRATGIPARFSGSGSGTDFTLTISSLEPEDFALYYCQQLNNWPPYTFGQGTKLEIK
notes: Fully human IgG with kappa light chain from an HCo7 HuMab Mouse hybridoma; also called IRTA5 HuMAb 2G5; biotinylated 2G5
B2: human monoclonal antibody 5A2 (antibody, V domains shown)
VH: QVQVVESGGGVVQPGRSLRLSCAASGFTFSNYGMHWVRQAPGKGLEWVAGIWYDGSNKYYADSVKGRFTISRDNSKNTLYLQMNSLRAEDTAVYYCARESPNFDYWGQGTLVTVSS
VL: B1 VL with L85V, L91R, Y97W, L105V
notes: Fully human IgG with kappa light chain from an HCo7 HuMab Mouse hybridoma
B3: human monoclonal antibody 7G8 (antibody, V domains shown)
VH: DVHLVQSGGGLVHPGGSLRLSCAGSGFTFSTYTMHWIRQAPGKDLEWVSAIGTGGGTDYADSVKGRFTISRDNAKNSLYLQMNSLRAEDMAVYYCAREVYWYFDLWGRGTLVTVSS
VL: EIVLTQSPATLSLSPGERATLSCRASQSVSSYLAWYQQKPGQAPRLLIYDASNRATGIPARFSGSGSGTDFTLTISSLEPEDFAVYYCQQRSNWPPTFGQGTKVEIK
notes: Fully human IgG with kappa light chain from an HCo7 HuMab Mouse hybridoma; also called IRTA5 HuMAb 7G8; biotinylated 7G8

Results on three molecules are retold here after patent US20050266008A1 (Bristol-Myers Squibb, published 2005).

Where a chain is given by its changes, count along the chain named.

The first assay concerns the target T1, IRTA1 expressed on transfected CHO …. As to the kind of experiment: flow cytometry on IRTA1-CHO cells, FITC-labeled anti-human IgG. The source says:
(§1) Chinese hamster ovary (CHO) cell lines that express one of each of the five IRTA proteins at the cell surface were developed and used to determine the specificity of the IRTA5 HuMAbs by flow cytometry. CHO cells were transfected with expression plasmids containing full length cDNA encoding transmembrane forms of IRTA1, IRTA2, IRTA3, IRTA4, or IRTA5. In addition, the transfected proteins contained an epitope tag at the N-terminus for detection by an antibody specific for the epitope. Binding of the seven anti-IRTA5 HuMAbs was assessed by incubating the transfected cells with each of the IRTA5 Abs at a concentration of 10 μg/ml. The cells were washed and binding was detected with a FITC-labeled anti-human IgG Ab. A murine anti-epitope tag Ab, followed by labeled anti-murine IgG, was used as the positive control. Non-specific human and murine Abs were used as negative controls. The results are depicted in FIG. 9. The IRTA5 HuMAbs bound to the CHO line transfected with IRTA5 but not to CHO lines expressing IRTA1, 2, or 4 as measured by the mean fluorescent intensity (MFI) of staining.
For B1, the binding result is “no binding (tested: 10 µg/ml)”.

As to B2, the binding result is “no binding (tested: 10 µg/ml)”.

For B3, the binding result was “no binding (tested: 10 µg/ml)”.

Another assay addresses T2, IRTA2 expressed on transfected CHO …. As to the kind of experiment: flow cytometry on IRTA2-CHO cells, FITC-labeled anti-human IgG.
Excerpt: as §1
(In general: In flow cytometry, cells or beads pass a laser one at a time.)
Regarding B1, the binding result was “no binding (tested: 10 µg/ml)”.

As for B2, the binding result is “no binding (tested: 10 µg/ml)”.

As to B3, the binding result is “no binding (tested: 10 µg/ml)”.

The target in another assay is T3, IRTA5 expressed on transfected CHO …. Briefly: flow cytometry on IRTA5-CHO cells, antibody at 10 µg/ml, FITC-labeled anti-human IgG; the log y axis has no label on the sheet (MFI per the text).
Excerpt: as §1
Consider B1, for which the binding result is recorded as “binds”.

For the molecule B2, the binding result is on record as “binds”.

Consider B3, for which the binding result is recorded as “binds”.
